Assay results from patent publication US20080193973A1, “Bacillus Subtilis Strain and its Use in Preparing Pharmaceuticals for Treating Thrombosis” (CHENGDU DI'AO JIUHONG PHARMACEUTICAL, priority 2005, published 2008).
Marks after values point to notes of the source that are not given here.

Experiments:
[1] = weight and overt toxicity of test rats during 7 days of administration
Protocol: Experimental Animal: 84 male SD rats weighing 250 to 320 g, purchased from the Animal Center of Henan Medical University of China.
Eighty-four male SD rats were randomly assigned to seven experimental groups (12 rats each group) according to their body weight. The freeze-dried powder of nattokinase and positive drug aspirin were given to test groups and the control group was administered with 5% NaHCO3, by intragastric administration according to the dosage of 0.5 ml/100 g each day for 7 continuous days. The positive drug staphylokinase was given at the 7th day by intravenous injection.

[2] = system: carotid artery thrombosis in rats; experiment: carotid artery thrombosis test in rats (direct current stimulation, thrombus formation time); format: in vivo, SD rats
Protocol: Experimental Apparatus: Experimental Intracorporeal Thrombosis Surveyor BT87-3, developed by the cardiovascular research department of Baotou Medical University of China.
The carotid artery of test rats were separated 1 hour after the last intragastric administration or 15 minutes after intravenous injection according to the method prescribed in existing literature. Being stimulated continually with direct current (2 mA) for 7 minutes, the injuries of endarterium of carotid artery formed thrombosis gradually in test rats. The experimental apparatus would give an automatic alarm and record the time of thrombus formation when the blood vessels were blocked.

mice = experiment: acute toxicity test by intragastric administration in mice; format: in vivo
[3] = temperature below 56 degree C. for 30 10 minutes; cited from earlier work
[4] = preliminary test of activity of nattokinase prepared by 5% NaHCO3 at room temperature; format: physicochemical; conditions: prepared by 5% NaHCO3, room temperature for 4 days
Source text: Basis of Preparation: It has been reported that the nattokinase-like drugs are stable at pH values from 6.0 to 12.0 and unstable when to the PH value is below 5.0. Generally, the pH values of digestive tract are ranged from 0.9 to 1.5 in stomach, 6.0 to 6.8 in small intestine and 6.5 to 7.5 in colon. Therefore, the direct intragastric administration of drug containing nattokinase prepared with common solution adjuvant is unstable and easy to breakdown.

[5] = enzyme (nattokinase) activity of fermentation broth or dried crude product; format: biochemical
Source text: Although many kinds of fermentation techniques have been reported in existing literatures related to nattokinase from Bacillus subtilis, but the majority of the publicized strains have lower enzyme producing ability. On the other hand, other literatures describes some fermentation products from Bacillus subtilis that have higher enzyme producing ability, but it is difficult to evaluate the abilities of these publicized enzymes for the uncertainties of measuring conditions. The strain of Bacillus subtilis of the invention was fermented under the condition of temperature 30 to 40 degree C. and with the speed of 180 to 220 rpm for shaking bed, and the peak of enzyme production was obtained next day with enzyme activity of 1600 IU/ml and could be increased to 1697 IU/ml under optimized conditions. The enzyme activity of dried crude product could reach to 5000-10000 IU/g in solid fermentation of 10 kg supplies. […] Therefore, it has a very high industrial application value. So we think that the strain of Bacillus subtilis (No. Diao 1502) is a newly developed, different one in comparison with any Bacillus subtilis producing nattokinase reported in existing literatures.

[6] = in vivo, po; cited from earlier work

CC(=O)Oc1ccccc1C(=O)O [Aspirin]
Weight of test rats after 7 days of administration ([1]; aspirin 40 mg/kg/day intragastric): 316 ± 20
Weight of test rats before administration ([1]; aspirin group (40 mg/kg/day intragastric)): 296 ± 15
Thrombus formation time, mean value ([2]; aspirin 40 mg/kg/day intragastric for 7 days, 1 hour after last administration): 1379** second

B1: nattokinase of the invention: fibrinolysin produced by Bacillus subtilis Diao 1502; crude drug, luteous water-soluble powder, batch No. 20040617 (protein, UniProt P35835 107-381, looked up)
Subtilisin NAT: AQSVPYGISQIKAPALHSQGYTGSNVKVAVIDSGIDSSHPDLNVRGGASFVPSETNPYQDGSSHGTHVAGTIAALNNSIGVLGVAPSASLYAVKVLDSTGSGQYSWIINGIEWAISNNMDVINMSLGGPTGSTALKTVVDKAVSSGIVVAAAAGNEGSSGSTSTVGYPAKYPSTIAVGAVNSSNQRASFSSVGSELDVMAPGVSIQSTLPGGTYGAYNGTSMATPHVAGAAALILSKHPTWTNAQVRDRLESTATYLGNSFYYGKGLINVQAAAQ
LD50 (mice): higher than 6.0 g/kg
Activity after incubation (in words) [3]: basically unchanged
Toxicity in rats (in words) ([1]; 7-day's intragastric administration, prepared with 5% NaHCO3): no apparent toxicity
Activity after storage (in words) [4]: no decrease in activity
Enzyme activity of fermentation broth ([5]; after optimization of fermentation condition): 1697 IU/ml
Enzyme activity of fermentation broth ([5]; liquid fermentation, before optimization): 1600 IU/ml
Enzyme activity of dried crude product ([5]; solid fermentation of 10 kg class, after drying): 5000-10000 IU/g
Carotid artery thrombosis time compared with positive Aspirin (in words) ([2]; groups of different dosages): no significant difference
Thrombus formation time, mean value ([2]; high dosage 100 mg/kg in 5% NaHCO3, intragastric for 7 days): 1309** second
Effect on carotid artery thrombosis time compared with negative control (in words) ([2]; listed as NK prepared by 5% NaHCO3): apparent antithrombotic effects
Effect on carotid artery thrombosis time compared with negative control (in words) ([2]; listed as freeze dried powder of nattokinase): prolonged significantly
Thrombus formation time, mean value ([2]; low dosage 4 mg/kg in 5% NaHCO3, intragastric for 7 days): 1237* second
Thrombus formation time, mean value ([2]; middle dosage 20 mg/kg in 5% NaHCO3, intragastric for 7 days): 1287* second

B2: Nattokinase (NK): serine protease extracted from the traditional Japanese food Natto, 275 amino acids (background literature) (protein, UniProt P35835 107-381, looked up)
Subtilisin NAT: AQSVPYGISQIKAPALHSQGYTGSNVKVAVIDSGIDSSHPDLNVRGGASFVPSETNPYQDGSSHGTHVAGTIAALNNSIGVLGVAPSASLYAVKVLDSTGSGQYSWIINGIEWAISNNMDVINMSLGGPTGSTALKTVVDKAVSSGIVVAAAAGNEGSSGSTSTVGYPAKYPSTIAVGAVNSSNQRASFSSVGSELDVMAPGVSIQSTLPGGTYGAYNGTSMATPHVAGAAALILSKHPTWTNAQVRDRLESTATYLGNSFYYGKGLINVQAAAQ
Time of peak value of fibrinolytic activity after taking the medicine [6]: 4 h
Time till which certain activity was maintained [6]: 8 h
